For data set [1], the system named is streptokinase-human plasminogen activator complex. The data set is described as follows: Residual enzyme activity of acylated streptokinase-human plasminogen activator complex. Type of data set: biochemical. The conditions noted are these: freeze-dried powder. The procedure: The time for which the reaction is allowed to proceed depends upon the blocking reagent employed, the temperature at which the reaction is carried out and the enzyme selected for blocking. The optimum time period for any particular circumstances may be selected by following the decrease in enzymic activity by incubating aliquots with a chromogenic or fluorogenic substrate.

Data set [2] deals with radio-labelled clot in the inferior vena cava. Put plainly: In vivo fibrinolytic enzyme test: radio-labelled clot in the inferior vena cava of the rabbit. On the set-up: species or system New Zealand white rabbit. The conditions noted are these: systemic infusion, blood radioactivity at least twice background within six hours without death. From the text:
The agent under test is introduced into the bloodstream at a point where it must pass through the heart to ensure that the agent will be thoroughly mixed with venous blood. Non-specific lytic enzymes attack blood proteins and cause death before any lysis of the clot is observed. Enzymes which have a degree of specificity for fibrin lyse the clot at a dose lower than the lethal dose.
A New Zealand white rabbit (2.5-3.5 kg) is anaesthetised and three cannulas are inserted into the anterior facial vein (referred to as cannula 1 in this description), the left carotid artery (referred to as cannula 2) and the left external iliac vein (referred to as cannula 3). […] The quantity of 50 μl is determined arbitrarily, and represents an amount between the minimum quantity which can be measured accurately and the maximum quantity which can be injected without excessive disturbance of physiological conditions within the isolated vein portion. […] The first swab is transferred to a counting vial, and the level of γ -radiation is measured. […]
Constriction is required in order to prevent dislodgement of the clot. […] A second blood sample (P10) is withdrawn into citrate buffer as above and counted as previously described ten minutes after Po This count is made to check that no additional radio-activity has been washed into the bloodstream, thereby giving an indication of the stability of the clot. […]

For the molecule “p-Anisoyl Streptokinase-Human Plasminogen Activator Complex [Example 26]”, the “remaining share of the original enzyme activity” value in data set [1] is given as “less than 5%”.

B1: human plasmin: free proteolytic enzyme, in vivo fibrinolytic enzyme (protein, UniProt P00747 20-580; P00747 581-810, looked up)
Plasmin heavy chain A: EPLDDYVNTQGASLFSVTKKQLGAGSIEECAAKCEEDEEFTCRAFQYHSKEQQCVIMAENRKSSIIIRMRDVVLFEKKVYLSECKTGNGKNYRGTMSKTKNGITCQKWSSTSPHRPRFSPATHPSEGLEENYCRNPDNDPQGPWCYTTDPEKRYDYCDILECEEECMHCSGENYDGKISKTMSGLECQAWDSQSPHAHGYIPSKFPNKNLKKNYCRNPDRELRPWCFTTDPNKRWELCDIPRCTTPPPSSGPTYQCLKGTGENYRGNVAVTVSGHTCQHWSAQTPHTHNRTPENFPCKNLDENYCRNPDGKRAPWCHTTNSQVRWEYCKIPSCDSSPVSTEQLAPTAPPELTPVVQDCYHGDGQSYRGTSSTTTTGKKCQSWSSMTPHRHQKTPENYPNAGLTMNYCRNPDADKGPWCFTTDPSVRWEYCNLKKCSGTEASVVAPPPVVLLPDVETPSEEDCMFGNGKGYRGKRATTVTGTPCQDWAAQEPHRHSIFTPETNPRAGLEKNYCRNPDGDVGGPWCYTTNPRKLYDYCDVPQCAAPSFDCGKPQVEPKKCPGR
Plasmin light chain B: VVGGCVAHPHSWPWQVSLRTRFGMHFCGGTLISPEWVLTAAHCLEKSPRPSSYKVILGAHQEVNLEPHVQEIEVSRLFLEPTRKDIALLKLSSPAVITDKVIPACLPSPNYVVADRTECFITGWGETQGTFGAGLLKEAQLPVIENKVCNRYEFLNGRVQSTELCAGHLAGGTDSCQGDSGGPLVCFEKDKYILQGVTSWGLGCARPNKPGVYVRVSRFVTWIEGVMRNN
modifications: Plasmin
As to B1, the “dose giving a positive result in the in vivo fibrinolytic test” value in data set [2] was 1×10^-7 to 5×10^-6 mol of active catalytic sites per kg of test animal.
